{
  "source": "the nanobody polyreactivity screen of Harvey et al. (2022)",
  "data": [
    {"assay": "yeast display, Sf9 membrane polyspecificity reagent, FACS + sequencing; frameworks hold sequencing errors", "procedure,_shortened": "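Synthetic nanobody libraries on Saccharomyces cerevisiae BJ5465 were galactose-induced for 36–48 hours, stained 1 hour at 4 °C with 10% biotinylated, detergent-solubilized Sf9 membrane reagent and enriched on streptavidin microbeads. FACS then separated cells into low and high (top ~1%) gates by anti-HA (expression) and streptavidin (reagent binding) fluorescence. Genes were colony-PCR amplified, MiSeq 2 × 250 sequenced and CDR-length filtered. A clone's polyreactivity label is that of its gate of origin.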", "values": [
      {"sequence": "QVQLVESGGGLVQAGGSLRLSCAASGSTFQGYAMGWYRQAPGKERELVAAISWNGGSTYYADSVKGRFTISRDNAKNTVYLQMNSLKPEDTAVYYCAAYSFAYRFNYWGQGTQVTVSS", "polyreactivity (PSR sort gate)": "high polyreactivity"},
      {"sequence": "QVQLVESGGGLVQAGGSLRLSCAASGSTFQGYAMGWYRQAPGKERELVSAISGSGGNTYYADSVKGRFTISRDNAKNTVYLQMNSLKPEVTAVYSCAAGHVRTDWRYGYWGQGTQVTVSS", "polyreactivity (PSR sort gate)": "low polyreactivity"},
      {"sequence": "QVQLVESGGGLVQAGGSLRLSCAASGSTFQINAMGWYRQAPGKEREFVAAITVSSGSTYYADSVKGRFTISRDNAKNTVYLQMNSLKPEDTAVYYCAAEFHWWYAGYDYGYWGQGTQVTVSS", "polyreactivity (PSR sort gate)": "low polyreactivity"},
      {"sequence": "QVQLVESGGGLVQAGGSLRLSCAASGSTFQINAMGWYRQAPGKERELVAAIDGGGDTYYADSVKGRFTISRDNAKNTVYLQMNTLKPEDTAVYYCAAERRIYYQDFNYWGQGTQVTVSS", "polyreactivity (PSR sort gate)": "low polyreactivity"},
      {"sequence": "QVQLVESGGGLVQAGGSLRLSCAASGSTFQINAMGWYRQAPGKERELVAAIDGGGDTYYADSVKGRFTISRDNAKYTVYLQMNSMKPEDTAVYYCAAERRIYYQDFNFWGQGTQVTVSS", "polyreactivity (PSR sort gate)": "low polyreactivity"},
      {"sequence": "QVQLVESGGGLVQAGGSLRLSCAASGSTFQIYTMGWYRQAPGKERELVAAITNGGGSTYYADSVKGRFTISRDNAKNTVYLQMNSLKPEDTAVYYCAAEQRYPLIILYDYWGQGTQVTVSS", "polyreactivity (PSR sort gate)": "low polyreactivity"},
      {"sequence": "QVQLVESGGGLVQAGGSLRLSCAASGSTFQLYAMGWYRPPPGTERELVAGISRDGSTYYADSVKARFSISRDNSKNTVYLQMNSLKPEDTAVYYCAAKYYGNKRDLYYWGQGTQVTVSS", "polyreactivity (PSR sort gate)": "low polyreactivity"},
      {"sequence": "QVQLVESGGGLVQAGGSLRLSCAASGSTFQLYVMGWYRQAPGKERELVAAIDDGGGSTYYADSVKGRFTISRDNAKNTVYLQMNSLKPEDTAVYYCARRYGYFGYEYDYWGQGTQVTVSS", "polyreactivity (PSR sort gate)": "high polyreactivity"},
      {"sequence": "QVQLVESGGGLVQAGGSLRLSCAASGSTFQNYAMGWYRQAPGKERELVATINWSGGNTYYADSVKGRFTISRDNAKNTVYLQMNSLKPEDTAVYYCAADSPRYYYWVGPYYGYDYWGQGTQVTVSS", "polyreactivity (PSR sort gate)": "high polyreactivity"},
      {"sequence": "QVQLVESGGGLVQAGGSLRLSCAASGSTFQRNAMGWYRQAPGKERELVAVITRRGASTYYADSVKGRFTISRDYEKNTVYLQMKSLKAEDTAVYYCNKVPYGRDHHLLFDYWGQGTQVTVSS", "polyreactivity (PSR sort gate)": "high polyreactivity"},
      {"sequence": "QVQLVESGGGLVQAGGSLRLSCAASGSTFQSNAMGWYRQAPGKERELVASITDSGGRTYYADSVKGRFTSSRDNAKNTVYLQMNSLKPEDTAVYYCAAVSLWWSDYYFVEYDYWGQGTQVTVSS", "polyreactivity (PSR sort gate)": "high polyreactivity"},
      {"sequence": "QVQLVESGGGLVQAGGSLRLSCAASGSTFQSNGMGWYRQAPGKERELVAAITSTDASTSYADSVKGRFTISRDNAKNTVYLQMNSLKPEDTAVYYCAADFPVASGAELDYWGQGTQVTVSS", "polyreactivity (PSR sort gate)": "low polyreactivity"},
      {"sequence": "QVQLVESGGGLVQAGGSLRLSCAASGSTFQSYAMGWYRQAPGKERELVAAITTTGTRTYYADSVKGRFTISRDNAKNTVYLQMNSLKPEDTAVYYCNAQRLQAHRTSRRYGYWGQGTQVTVSS", "polyreactivity (PSR sort gate)": "high polyreactivity"},
      {"sequence": "QVQLVESGGGLVQAGGSLRLSCAASGSTFQSYTMGWYRPAPGKERELVAAISSSGGRTYYADSVKGRFTISRDNAKHTVYLQMNSLKPEDTAVYYCAAVTQSWRGATWYDYWGQGTQVTVSS", "polyreactivity (PSR sort gate)": "high polyreactivity"},
      {"sequence": "QVQLVESGGGLVQAGGSLRLSCAASGSTFQTNAMGWYRQAPGKERELVAAINSGGGTNYADSVKGRFTISRDNAKNTVYLQMNSLKPEDTAVYYCATDVLPRKYVSDYPSGAYDYWGQGTQVTVSS", "polyreactivity (PSR sort gate)": "low polyreactivity"},
      {"sequence": "QVQLVESGGGLVQAGGSLRLSCAASGSTFQTNARGWYRQAPGKERELVAAITWSGTSTYADSVKGRFTISRDNAKNPGYFQMNSLKPDDTAVYYCAAPILSFPSPYVQYDYWGLGTQVTVSS", "polyreactivity (PSR sort gate)": "low polyreactivity"},
      {"sequence": "QVQLVESGGGLVQAGGSLRLSCAASGSTFQWNAMGWYRQAPGKERELVAAISKSGGRTYYADSVKGRFTISRDFAKNTVYLQRNSLKPDDTAVYYCNALGSLDGRYGYWGQGTQVTVSS", "polyreactivity (PSR sort gate)": "high polyreactivity"},
      {"sequence": "QVQLVESGGGLVQAGGSLRLSCAASGSTFQWYAMGWYRQAPGKERELVAAINKSGGTTYYADSVKGRFTISRDNAKNTVYLQMNSLKPEDTAVYYCAADTQQRGVYPRWWNPEFDYWGLGTQVTVSS", "polyreactivity (PSR sort gate)": "low polyreactivity"},
      {"sequence": "QVQLVESGGGLVQAGGSLRLSCAASGSTFQYNAMAWYRQAPGKEREFVAAITSSGGSTYYADSVKGRFTISRDNAKNTVYLQMNSLKPEDTAVYYCNKRRTRRYDYWGQGTQVTVSS", "polyreactivity (PSR sort gate)": "high polyreactivity"},
      {"sequence": "QVQLVESGGGLVQAGGSLRLSCAASGSTFQYNAMGGYRQAPGKERELVASISWSGGSTYYADSVKGRFTISRDNAKNTVYLQMNSLKPEVTAVYYCAADWSDQRDYWGQGTQVTVSS", "polyreactivity (PSR sort gate)": "low polyreactivity"},
      {"sequence": "QVQLVESGGGLVQAGGSLRLSCAASGSTFQYNAMGWYRQAPGKEREFVAAISRTGTSTYYADSVKGRFTISRDNAKNTVYLLMNSLKPEDTAVYYCAAKSLRSGMGYWGQGTQVTVTS", "polyreactivity (PSR sort gate)": "high polyreactivity"},
      {"sequence": "QVQLVESGGGLVQAGGSLRLSCAASGSTFQYNAMGWYRQAPGKEREFVAAISRTGTSTYYADSVKGRFTISRDNAKNTVYLQMNSLKPEDNAVYYCAAKSLRSGMGYWGQGTQVTVSS", "polyreactivity (PSR sort gate)": "high polyreactivity"},
      {"sequence": "QVQLVESGGGLVQAGGSLRLSCAASGSTFQYNAMGWYRQAPGKEREFVAAITNGGGSTYYADSVKGRFTISRDNAKNTVYLQMNSLKPEDTAVYYCNARFRYARYSQRYDYWGQGTQVTVSS", "polyreactivity (PSR sort gate)": "high polyreactivity"},
      {"sequence": "QVQLVESGGGLVQAGGSLRLSCAASGSTFQYNAMGWYRQAPGKERELVAAISTGTSTYYADSVKGRFTISRDNAKNTVYLQMNSLKPEDTAVYYCAAEYWGDYTEYNYWGQGTQVTVSS", "polyreactivity (PSR sort gate)": "high polyreactivity"},
      {"sequence": "QVQLVESGGGLVQAGGSLRLSCAASGSTFQYNVMGWYRPAPGKERELVATISYSSGRTYYADSVKGRFTISRDNAKNTVYLQMNSLKPEDTAVYYCAAAVRLYFWTSAYKYGYWGQGTQVTVSS", "polyreactivity (PSR sort gate)": "high polyreactivity"},
      {"sequence": "QVQLVESGGGLVQAGGSLRLSCAASGSTFQYYAMGWYRQAPGKERELVAAISSGGRTNYADSVKGRFTISRDNAKNTVYLQMNSLKPEDTAVYYCAARWCYTKGEFDYWGQGTQVTVSS", "polyreactivity (PSR sort gate)": "high polyreactivity"},
      {"sequence": "QVQLVESGGGLVQAGGSLRLSCAASGSTFRANAMGWYRQAPGKERELVAAITSGGSTNYADSVKGRFTISRDNAKNTVYLQMNCLKPEDTAVYYCADESYQEHSFYVYYGYDYWGQGTQVTVSS", "polyreactivity (PSR sort gate)": "low polyreactivity"},
      {"sequence": "QVQLVESGGGLVQAGGSLRLSCAASGSTFRANAMGWYRQAPGKERELVAAITSGGSTNYADSVKGRFTISRDNATNTVYLQMNSLKPEDTAVYYCADESYQEHSFYVYYGYDYWGQGTQVTVSS", "polyreactivity (PSR sort gate)": "low polyreactivity"},
      {"sequence": "QVQLVESGGGLVQAGGSLRLSCAASGSTFRANVMGWYRQAPGKEWELVAAITSGGGSTYYADSVKGRFTISRDNAKNTVYLQMNSLKPEDTAVYYCATKRARYSYYYWGQGTQVTVSS", "polyreactivity (PSR sort gate)": "high polyreactivity"},
      {"sequence": "QVQLVESGGGLVQAGGSLRLSCAASGSTFRDNAMGWYRQAPGKERELVAAITVIDGTTYYADSVKGRFTISRDNAKNTVYLQMKSLKPEDTAVYYCAADTIWYEYYYWGQGTQVTVSS", "polyreactivity (PSR sort gate)": "low polyreactivity"},
      {"sequence": "QVQLVESGGGLVQAGGSLRLSCAASGSTFRDNAMGWYRQAPGKEWELVAAITVIDGTTYYADSVKGRFTLSRDNAKNTVYLQMNSLKPEDTAVYYCAADTIWYEYYYWGQGTQVTVSS", "polyreactivity (PSR sort gate)": "low polyreactivity"},
      {"sequence": "QVQLVESGGGLVQAGGSLRLSCAASGSTFRDNTMGWYRQAPGKERELVAAITKSGGSTYYADSVKGRFTISRDTAKNTVYLQMNSLKPEDTAVYYCAAGARPRDKPVYFLYRYDYWGQGTQGTVSS", "polyreactivity (PSR sort gate)": "low polyreactivity"},
      {"sequence": "QVQLVESGGGLVQAGGSLRLSCAASGSTFRDYAMGWYRQAPGKERELVAAITSGGTTDYADSVKGRFTISRYNAKNTVYLQMISLKPEDTAVYYCNKDGVVAGYQYDYWGQGTQVTVSS", "polyreactivity (PSR sort gate)": "low polyreactivity"},
      {"sequence": "QVQLVESGGGLVQAGGSLRLSCAASGSTFRFYALGWSRQAPGKERELVAAINGSGGSTYYADSVKGRFTISRDNAKNTVYLQMNSLKPEDTAVYYCAATYYILYTSWDEYWGQGTQVTVSS", "polyreactivity (PSR sort gate)": "low polyreactivity"},
      {"sequence": "QVQLVESGGGLVQAGGSLRLSCAASGSTFRFYAMGWYRQAPGKEREFVAAISTSGGSTYYADSVKGRFTISRDNAKNTVYLQMISLKPEETAVYYCATRRRIRSSFYYDNDYWGLGTQVTVSS", "polyreactivity (PSR sort gate)": "high polyreactivity"},
      {"sequence": "QVQLVESGGGLVQAGGSLRLSCAASGSTFRFYAMGWYRQAPGKERELVAAISSGGSTYYADSVKGRFTISRDNAKNTVYLQMNSLKPEDTAVYYCNARLYYSTFRYYYWGQGTQVTVSS", "polyreactivity (PSR sort gate)": "high polyreactivity"},
      {"sequence": "QVQLVESGGGLVQAGGSLRLSCAASGSTFRFYAMGWYRQAPGKERELVAVISSAGSTNYADSVKGRFTISRDNAKNTVYLQMNSLKTEDTAVYYCAAYRRYSIYNYWGQGTQVTVSS", "polyreactivity (PSR sort gate)": "high polyreactivity"},
      {"sequence": "QVQLVESGGGLVQAGGSLRLSCAASGSTFRFYTMGWYRQAPGKERELVAAISGSGGSTYYADSVKGRFTISRDNAKNTVYLQMNSLKPEDTADYYCAADKSRNASHRGYWGQGTQVTVSS", "polyreactivity (PSR sort gate)": "low polyreactivity"},
      {"sequence": "QVQLVESGGGLVQAGGSLRLSCAASGSTFRFYTMGWYRQAPGKERELVAAISGSGGSTYYADSVKGRFTISRDNAKNTVYLQMNSLKPEDTAVYYCAADKSRYASHRGYWGQGTQVTVSS", "polyreactivity (PSR sort gate)": "low polyreactivity"},
      {"sequence": "QVQLVESGGGLVQAGGSLRLSCAASGSTFRGYAMGWYRQAPGKEREFVAAISRRGGTTYYADSVKGRFTISRDNAKNTVDLQMNSRNPEDTAVYYCNAVLYARQRDRWARYDYWGQGTQVTVSS", "polyreactivity (PSR sort gate)": "high polyreactivity"},
      {"sequence": "QVQLVESGGGLVQAGGSLRLSCAASGSTFRGYAMGWYRQAPGKERELVAAIISDGTTNYADSVKGRFTISRDNAQTTVYLQMNSLKPEDTAVYYCNAEVQGGRPQFDYWGQGTQVTVSS", "polyreactivity (PSR sort gate)": "low polyreactivity"}
    ]}
  ]
}
